This note sets out measurements from publication PMC3373503, “Ca^2+ Regulates the Drosophila Stoned-A and Stoned-B Proteins Interaction with the C2B Domain of Synaptotagmin-1” (PLoS ONE, 2012).

Holding throughout (test): pull-down; 1.5 µM GST protein as bait on glutathione resin, 0.25 µM MBP protein as prey; 2 h at 4°C; 10 mM HEPES pH 7.4, 1 mM MgCl2, 1 mg/ml BSA, 1 mM CaCl2 (Ca2+ binding buffer); eluted with glutathione, anti-MBP Western blot, densitometry
For orientation: In western blotting, separated proteins are transferred to a membrane and probed.

For assay [1], the target named is GST-ΔW, C2B domain of Synaptotagmin-1 truncated immediately before the WHTL motif (Drosophila) (UniProt P21521).
The target of assay [2] is GST-C2B, C2B domain of Synaptotagmin-1 (wild type) (Drosophila) (UniProt P21521).
Assay [3] addresses T1, GST-C2B, C2B domain of Synaptotagmin-1 (wild type) (Drosophila, UniProt P21521 323-474).
T1 construct: Synaptotagmin-1 (SYT-1), Drosophila, C2B domain, printed as 'bases 323–474' (read as residues 323-474), from the Drosophila syt cDNA clone, in pGEX-4T-1; also called GST SYT-1 C2B domain; C2B SYT-1; source: E. coli, purified (glutathione resin, washed free of nucleic acids)
The conditions noted are these: both partners purified.

On to “MBP-C2B, C2B domain of Synaptotagmin-1 (wild type) (from UniProt P21521 323-474) (domain or fragment)”, for which the fold binding against binding to GST-C2B in assay [1] is 4 fold.
With “MBP-STNB (MHD), µ-homology domain of Stoned-B (from UniProt Q24212 1-1262) (domain or fragment)”, the fold binding against binding to GST-C2B in assay [1] was over 5 fold. For the same molecule, in assay [2], the fold binding against binding to GST-C2A came to 4 fold and the fold binding in Ca2+ buffer against EGTA buffer came to 4 fold.
In assay [1], “MBP-STNA (CCD), coiled-coil domain of Stoned-A (from UniProt Q24211 1-850) (domain or fragment)” yielded a fold binding against binding to GST-C2B of over 3 fold. In assay [2], this molecule returned a fold binding against binding to GST-C2A of 3 fold and a fold binding in Ca2+ buffer against EGTA buffer of 2.5 fold.

B1: MBP-C2B, C2B domain of Synaptotagmin-1 (wild type) (domain or fragment, Drosophila, UniProt P21521 323-474, looked up)
chain: QEKLGDICFSLRYVPTAGKLTVVILEAKNLKKMDVGGLSDPYVKIAIMQNGKRLKKKKTSIKKCTLNPYYNESFSFEVPFEQIQKICLVVTVVDYDRIGTSEPIGRCILGCMGTGTELRHWSDMLASPRRPIAQWHTLKDPEETDEILKNMK
notes: Synaptotagmin-1 (SYT-1), Drosophila, C2B domain; 'the DNA encoding the C2B domain was also inserted into pMAL-c2X'; also called full length MBP-C2B; wild-type MBP-C2B; source: E. coli, purified (amylose resin, washed free of nucleic acids)
On to B1, for which, in assay [3], the binding result was “binds”.
